Experimental data taken from US20240352088A1 (AICHI PREFECTURE, published 2024).

Target: T1, IL-6 (interleukin-6) (human, UniProt P05231 30-212)
T1 construct: also called recombinant IL-6; human IL-6
Assay: plasma IL-6 by ELISA 1, 2 and 4 h after i.v. human IL-6 (2 µg) in NSG mice given the CAR-T cells
Experimental: An NALM6 cell line stably transduced with EGFP-P2A-Luc2 (GL) (referred to as a “NALM6-GL cell line”) was administered at 2.5×10⁶ cells/mouse into the tail vein of the NSG mice (Charles River Laboratories Japan, JAX Mice Stock No: 005557). After 10 days, control cells transduced with only a CAR gene or GP130-IL6R-ca7R-transduced CAR-T cells were administered into the tail vein at 3×10⁶ cells/mouse. After another 7 days, 2 μg of human IL-6 was intravenously administered, and blood was collected at 1 hour, 2 hours, and 4 hours after the injection to measure the concentration of IL-6 in plasma by ELISA. Note that the control cells or GP130-IL6R-ca7R-transduced CAR-T cells used for the administration into the NSG mice were stimulated again with the NALM6-GL cell line on day 7 of culture and expanded, and cultured for 11 days.

B1: chimeric cytokine receptor GP130-IL6R-ca7R (receptor)
chain: ELLDPCGYISPESPVVQLHSNFTAVCVLKEKCMDYFHVNANYIVWKTNHFTIPKEQYTIINRTASSVTFTDIASLNIQLTCNILTFGQLEQNVYGITIISGLPPEKPKNLSCIVNEGKKMRCEWDGGRETHLETNFTLKSEWATHKFADCKAKRDTPTSCTVDYSTVYFVNIEVWVEAENALGKVTSDHINFDPVYKVKPNPPHNLSVINSEELSSILKLTWTNPSIKSVIILKYNIQYRTKDASTWSQIPPEDTASTRSSFTVQDLKPFTEYVFRIRCMKEDGKGYWSDWSEEASGITYEDRPGSAGSAAGSGEFVDVPPEEPQLSCFRKSPLSNVVCEWGPRSTPSLTTKAVLLVRKFQNSPAEDFQEPCQYSQESQKFSCQLAVPEGDSSFYIVSMCVASSVGSKFSKTQTFQGCGILQPDPPANITVTAVARNPRWLSVTWQDPHSWNSSFYRLRFELRYRAERSKTFTTWMVKDLQHHCVIHDAWSGLRHVVQLRAQEEFGQGEWSEWSPEAMGTPWTESRSPPAENEVSTPMQALTTNKDDDNILFRDSANATSLPVQDSSSVPLPAAANNSSGEMDPILLPPCLTISILSFFSVALLVILACVLWKKRIKPIVWPSLPDHKKTLEHLCKKPRKNLNVSFNPESFLDCQIHRVDDIQARDEVEGFLQDTFPQQLEESEKQRLGGDVQSPNCPSEDVVITPESFGRDSSLTCLAGNVSACDAPILSSSRSLDCRESGKNGPHVYQDLLLSLGTTNSTLPPPFSLQSGILTLNPVAQGQPILTSLGSNQEEAYVTMSSFYQNQ
notes: Expressed on the surface of human CAR-T cells; also called GP130-IL6R-ca7R(WT)
binding result: binds
